Test results taken from patent publication US6147204, “Nucleic acid ligand complexes” (NeXstar Pharmaceuticals, Inc.).

Assays:
[1] = target: T1, bFGF (basic fibroblast growth factor) (UniProt P09038 P09038:143-288); test: binding affinity stated as 1 nM; settings: blunt-ended hairpin, Tm 68 C
[2] = target: T1, bFGF (basic fibroblast growth factor); test: 5'-32P binding assay; same affinity as unconjugated 225T3; settings: label: 5'-32P; hairpin
Experimental: Preparation and Functional Properties of PEG Conjugated and Cholesterol-Derivatized Nucleic Acid Ligands A PEG 3400 conjugate of a Nucleic Acid Ligand retains the binding affinity of the non-conjugated molecule The ability of a bFGF ligand/PEG-3400 conjugate to bind bFGF was tested. Molecule 225T3 (SEQ ID NO: 10), a high affinity DNA ligand to bFGF, was chosen for conjugation with PEG via a primary amine-NHS coupling reaction. […] Ligand 225T3 was modified with a 3'-amino-modifier C7 CPG (Glen Research, Sterling, Va.) using standard DNA synthesis methods and will be referred to as 225T3N (SEQ ID NO:11). 225T3N was reacted with the N-hydroxysuccinimidyl (NHS) active ester of PEG (avg. MW 3400) in 20% (v/v) […] 80% (v/v) 0.5 M sodium bicarbonate buffered at pH 8.5. The resulting conjugate, 225T3N-PEG-3400 (SEQ ID NO: 14), was purified from the free DNA on a 12% polyacrylimide/7 M urea gel. The conjugate was 5' end-labeled with ^32P and a binding assay was performed.

[3] = target: T2, VEGF (vascular endothelial growth factor) (UniProt P15692-4 P15692-4:27-191); test: competition; not an effective competitor up to 2 uM; settings: chain copies: 2
T2 sequence (P15692 other isoform, or with tags, fused parts or gaps): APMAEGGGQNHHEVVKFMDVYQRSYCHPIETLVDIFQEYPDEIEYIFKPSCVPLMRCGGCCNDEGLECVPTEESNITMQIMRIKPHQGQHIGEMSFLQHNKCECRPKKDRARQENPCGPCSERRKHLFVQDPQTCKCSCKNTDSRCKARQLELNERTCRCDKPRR
Experimental: (§1) NX278-Liposome Complex was prepared by incubating NX-278 (1 mg) (FIG. 1N; SEQ ID NO: 19) with of a mixture of DSPC:cholesterol (50 mg) in 10 mM phosphate (pH 7.4) buffer containing 9% sucrose and sonicated for 15–30 min using a probe-type sonicator until opalescent solution was obtained. The control Nucleic Acid Ligand-Liposome Complex containing a sequence scrambled analog of ligand NX-278 (scNX278) (FIG. 1W; SEQ ID NO:28) was prepared in the same manner. The size of Liposome particles (typically […]), determined in a particle analyzer (Leeds & Northrup Model Microtrack UPA 150, Horsham, Pa.) was similar to those obtained in the absence of the Nucleic Acid Ligand.

[4] = target: T2, VEGF (vascular endothelial growth …); test: 1 uM not inhibitory in guinea pig Miles assay; settings: chain copies: 2
Text: The ability of NX278-liposome to inhibit the vascular permeability activity of VEGF in vivo was examined.

[5] = target: T1, bFGF (basic fibroblast growth factor); test: 5'-32P binding assay; identical to 225T3; settings: label: 5'-32P; hairpin
[6] = target: T2, VEGF (vascular endothelial growth …); test: competition; ED50, competition ELISA against biotin-labeled VEGF ligand on immobilized VEGF; printed 10^-9 M; settings: chain copies: 2
[7] = target: T2, VEGF (vascular endothelial growth …); test: competition; apparent ED50, competition ELISA; printed 10^-7 M; settings: chain copies: 2
Experimental: as §1

[8] = target: T2, VEGF (vascular endothelial growth …); test: cell_activity; inhibition of HUVEC proliferation with 10 ng/ml VEGF; KS cells (KSY-1) IC50 about 100 nM; settings: chain copies: 2
Experimental: The effects of NX278-liposome, scNX278-liposome and NX213 on the proliferation of human umbilical vein endothelial cells (HUVEC) and Kaposi's Sarcoma (KS) cells in tissue culture were examined. HUVECs were grown in the presence of VEGF (10 ng/ml) in IMDM:Ham's F12 (1:1) medium containing 10% fetal calf serum (FCS) and heparin (45 μg/ml). Cells were plated in 24-well gelatin-coated plates at a density of 20,000 cells per well on day zero and treated with the above ligands at concentrations between 0.1 nM to 1 μM on days 1, 2, and 3 (replacing the media along with the ligands). Cell count was performed on day 4. KS cell line KSY-1 was plated in 24-well gelatin coated plates at a density of 7,500–10,000 cells per well on day zero in medium containing RPMI 1640 supplemented with 2% FCS, L-glutamine, penicillin and streptomycin. Nucleic Acid Ligands were added at concentrations between 0.1 nM to 1 μM in fresh medium on day 1, 2, and 3 and the cell count was performed on day 4.

T1 sequence (P09038 143-288, one chain of several): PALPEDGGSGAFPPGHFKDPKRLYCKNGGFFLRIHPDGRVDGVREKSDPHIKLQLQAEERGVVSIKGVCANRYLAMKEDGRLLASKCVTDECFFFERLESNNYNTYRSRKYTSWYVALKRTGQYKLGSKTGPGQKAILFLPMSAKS

## GCGGGGCTACGTACCGGGGCTTTGTAAAACCCCGC (ssDNA) [225T3]
[1]
  Kd: 1 nM

## GCGGGGCTACGTACCGGGGCTTTGTAAAACCCCGC (ssDNA, 3'-amino modifier C7 coupled to PEG (avg. MW 3400)) [225T3N-PEG-3400]
[2]
  Kd: 1 nM

## TTTTGUCGGUACGGAGUGGACCGUCACGTTTTT (mixed, dialkylglycerol (DAG), embedded in DSPC:cholesterol liposome) [scNX278-liposome]
[3]
  EC50: > 2000 nM
[4]
  binding result: no binding

## GCGGGGCTACGTACCGGGGCTTTGTAAAACCCCGC (ssDNA, 3'-tetraethyleneglycol cholesterol) [225T3-Cholesterol]
[5]
  Kd: 1 nM

## TTTTACCCUGAUGGUAGACGCCGGGGUGTTTTT (mixed) [NX213]
[6]
  EC50: ~1 nM

## TTTTACCCUGAUGGUAGACGCCGGGGUGTTTTT (mixed, 5'-dialkylglycerol (DAG), embedded in DSPC:cholesterol liposome) [NX278-liposome]
[7]
  EC50: ~100 nM
[8]
  IC50: ~300 nM
